Test results published in patent publication US20070099822A1, “Regulation of tissue mineralization and phosphate metabolism by asarm peptides” (priority 2003, published 2007).
Entries after “also recorded” stand apart in the source; their conditions may differ.

T1: MEPE-PHEX interaction (Homo sapiens, UniProt P78562)
T1 construct: to generate a soluble, secreted form of PHEX; made in house; host or cells: secPHEX: mammalian cells (gift, University of Montreal); MEPE: S. frugiperda insect cells
T1 sequence (P78562 46-749 limits assumed): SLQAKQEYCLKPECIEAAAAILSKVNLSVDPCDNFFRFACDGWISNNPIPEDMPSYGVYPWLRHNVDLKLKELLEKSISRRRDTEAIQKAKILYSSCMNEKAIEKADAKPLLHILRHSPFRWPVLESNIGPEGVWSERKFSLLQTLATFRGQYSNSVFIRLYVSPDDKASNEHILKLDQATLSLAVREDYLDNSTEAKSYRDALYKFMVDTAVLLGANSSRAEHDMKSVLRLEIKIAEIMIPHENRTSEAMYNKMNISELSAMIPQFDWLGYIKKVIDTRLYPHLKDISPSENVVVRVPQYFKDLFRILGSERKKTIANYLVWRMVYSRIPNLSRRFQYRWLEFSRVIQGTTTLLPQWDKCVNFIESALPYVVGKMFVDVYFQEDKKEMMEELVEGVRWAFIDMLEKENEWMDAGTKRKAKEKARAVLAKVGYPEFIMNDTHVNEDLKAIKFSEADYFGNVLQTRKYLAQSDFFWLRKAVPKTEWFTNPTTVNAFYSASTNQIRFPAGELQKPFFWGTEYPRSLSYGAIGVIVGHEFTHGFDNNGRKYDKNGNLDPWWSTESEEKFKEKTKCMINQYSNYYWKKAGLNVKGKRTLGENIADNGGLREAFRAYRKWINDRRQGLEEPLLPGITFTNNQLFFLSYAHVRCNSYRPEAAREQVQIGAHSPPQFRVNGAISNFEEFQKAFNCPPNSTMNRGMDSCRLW

B1: Hu-MEPE: purified insect expressed full-length recombinant human MEPE (Matrix Extracellular Phosphoglycoprotein) (protein)
chain: PTFQPQTEKTKQSCVEEQRQEEKNKDNIGFHHLGKRINQELSSKENIVQERKKDLSLSEASENKGSSKSQNYFTNRQRLNKEYSISNKENTHNGLRMSIYPKSTGNKGFEDGDDAISKLHDQEEYGAALIRNNMQHIMGPVTAIKLLGEENKENTPRNVLNIIPASMNYAKAHSKDKKKPQRDSQAQKSPVKSKSTHRIQHNIDYLKHLSKVKKIPSDFEGSGYTDLQERGDNDISPFSGDGQPFKDIPGKGEATGPDLEGKDIQTGFAGPSEAESTHLDTKKPGYNEIPEREENGGNTIGTRDETAKEADAVDVSLVEGSNDIMGSTNFKELPGREGNRVDAGSQNAHQGKVEFHYPPAPSKEKRKEGSSDAAESTNYNEIPKNGKGSTRKGVDHSNRNQATLNEKQRFPSKGKSQGLPIPSRGLDNEIKNEMDSFNGPSHENIITHGRKYHYVPHRQNNSTRNKGMPQGKGSWGRQPHSNRRFSSRRRDDSSESSDSGSSSESDGD

Assays:
MEPE-PHEX interaction = biological target: T1, MEPE-PHEX interaction; assay: Surface plasmon resonance, peptide solution competition of secPHEX-MEPE binding
Description: Surface Plasmon Resonance: Synthetic peptides & competitive PHEX-MEPE binding studies. For these experiments CM-5 chips containing flow-cells immobilized with MEPE, PHEX and IgG ligands at 6000 RU were used. Just prior to SPR injection, stock solution of specific-peptide (as defined for each experiment; see Table 1), and dissolved in analyte buffer (HBS-P—Zn) […] The following equation was used to compute KDapp values: RU=Bmax/inhib×(peptide(μM))/KDapp+(peptide(μM)). The Bmax/inh value represents the maximal percentage inhibition change in RU (i.e., PHEX-MEPE binding) relative to the “non-peptide” control (0% inhibition of binding), using a constant analyte flow-solution of secPHEX of 250 nM against immobilized MEPE ligand at 6000 RU. […] The control MEPE-RGD peptide had no effect on MEPE-PHEX interactions.

Male ICR-Swiss mice = assay: Intraperitoneal administration of Hu-MEPE and PTH (1-34) into mice, serum and urine assays; format: in vivo; settings: for serum phosphate: vehicle 11.94; for serum 1,25-dihydroxy vitamin-D3: vehicle 25.2; for serum alkaline phosphatase: vehicle 65.06
Description: Intraperitoneal administration of Hu-MEPE and PTH (1-34) into mice. Male ICR-Swiss mice were used as recipients for intraperitoneal administration (100 μl) of 0.1% phosphate-buffered saline/0.1% bovine serum albumin (vehicle) and experimental conditions (Hu-MEPE and PTH 1-34) dissolved in 100 μL of vehicle. Two separate (repeat) experiments were conducted consisting of four groups with 6 and 7 animals per group. The control group was administered with 100 μL of vehicle (Group-1). Group-2 consisted of animals administered with 0.8 μg/injection of parathyroid hormone (PTH 1-34). Group 3 were injected with 0.4 μg/injection of Hu-MEPE and Group-4 with 4 μg/injection of Hu-MEPE. On day one, three bolus injections were given at 0, 3 h, and 6 h. Serum samples were then collected via retro-orbital bleed one hour after the 6 h bolus administration. The next day or 30 hours after the first bolus a fourth bolus (same amount) was given and after 1 h the animals were sacrificed and serum prepared after cardiac exsanguination. The total amounts of PTH and MEPE administered over the 30 h were 80 μg/kg/30 h PTH 1-34, 40 μg/kg/30 h Hu-MEPE (MEPE-40) and 400 μg/kg/30 h Hu-MEPE (MEPE-400). Each group was placed in a separate metabolic cage and urine was collected for the 6-hour period. After the first 6-hour urine collection mice were replaced in thoroughly cleaned metabolic cages for the remaining 24 hours. The second 24-hour urine was collected immediately after the animals were sacrificed. The urine volumes for the second and first collections were measured. Collecting urine samples from large numbers of small mice over the time frame of the experiment was not feasible. Therefore, urine samples from each group (n=7) were pooled and volumes measured via a specially designed collecting duct in the metabolic cage. To ensure reproducibility the experiment was repeated twice (the same changes occurred). To calculate the fractional excretion of phosphate (FEP) the following equation was used: 100−(100×(1−(A/B))) where A=(urine phosphorus in mg/dL)×(serum creatinine in mg/dL) and B=(urine creatinine in mg/dL)×(serum phosphorus in mg/dL). To calculate renal phosphorus clearance (RPC) in mL/minute following computation was used: (urine phosphorus in mg/dL)×(urinary volume in mL)/((serum phosphorus in mg/dL)×(time of collection in minutes)). The phosphate excretion index (PEI) was calculated using the same method described by Shimada et al. (Cloning and characterization of FGF23 as a causative factor of tumor-induced osteomalacia, Proc Natl Acad Sci USA 98:6500-6505, 2001) using the following formula: ((urinary concentration of phosphorus in mg/dL)/(serum concentration of phosphorus in mg/dL))/(total urinary creatinine in mg).
Serum and urine assays. Serum and urine assays for phosphate, calcium, chloride, potassium, creatinine, glucose and alkaline phosphatase were accomplished using 96 well format KC4-spectrophotometer multiplate kinetic/end-point analyses using routine methods and diagnostic-kits Sigma-Diagnostics). Serum 1,25-dihydroxy vitamin-D3 levels were estimated using the method of Reinhardt, et al. (A microassay for 1,25-dihydroxyvitamin D not requiring high performance liquid chromatography: application to clinical studies, J Clin Endocrinol Metab 58:91-98, 1984). Analysis of data for fractional excretion of phosphate (FEP) was carried out following the same method described previously by Shimada et al. (Mutant FGF-23 responsible for autosomal dominant hypophosphatemic rickets is resistant to proteolytic cleavage and causes hypophosphatemia in vivo, Endocrinology 143:3179-82, 2002) for FGF23 bolus administration studies and by Nesbitt et al. (Crosstransplantation of kidneys in normal and Hyp mice: Evidence that the Hyp mouse phenotype is unrelated to an intrinsic renal defect, J Clin Invest 89:1453-59, 1992) for renal cross-transplantation experiments in Hyp mice.
Statistical methods. […]

Row | Kd (MEPE-PHEX interaction; 250 nM secPHEX, MEPE 6000 RU, read-out: apparent KDapp, solution competition of MEPE-PHEX binding) [µM] | Molecule | inhibition of MEPE-PHEX interaction (MEPE-PHEX interaction; peptide pre-mixed with secPHEX, MEPE-RGD up to 85 μM) | urine phosphate (Male ICR-Swiss mice; 7 h, MEPE-40 i.p., vehicle 31.8) [mg/dL] | fractional excretion of phosphate (FEP) (Male ICR-Swiss mice; 7 h, MEPE-400, vehicle 7.8%) [%] | urine phosphate (Male ICR-Swiss mice; 7 h, MEPE-400 i.p., vehicle 31.8) [mg/dL] | serum phosphate (Male ICR-Swiss mice; 31 h, MEPE-40 (40 ug/kg/30 h) i.p., not statistically significant) [mg/dL] | serum 1,25-dihydroxy vitamin-D3 (Male ICR-Swiss mice; 31 h, MEPE-40, pooled) [pg/mL] | serum alkaline phosphatase (Male ICR-Swiss mice; 31 h, MEPE-40) [U/L] | serum 1,25-dihydroxy vitamin-D3 (Male ICR-Swiss mice; 31 h, MEPE-400, pooled) [pg/mL] | fractional excretion of phosphate (FEP) (Male ICR-Swiss mice; 31 h, MEPE-400, vehicle 28.7%) [%] | serum alkaline phosphatase (Male ICR-Swiss mice; 31 h, MEPE-400) [U/L] | urine phosphate vs vehicle (Male ICR-Swiss mice; 31 h, low-dose MEPE-40) | serum phosphate (Male ICR-Swiss mice; 31 hours, MEPE-400 (400 ug/kg/30 h) i.p.) [mg/dL] | urine phosphate (Male ICR-Swiss mice; 31 h second urine, MEPE400, vehicle 175.9) [mg/dL] | serum phosphate vs vehicle (Male ICR-Swiss mice; after 7 hours, i.p., PTH and MEPE animals) | serum calcium vs vehicle (Male ICR-Swiss mice; after 7 hours, PTH 80 ug/kg/30 h, low Hu-MEPE dose) | FEP vs vehicle (Male ICR-Swiss mice; low dose MEPE-40)
1 | ~35 | H-CFSSRRRDDSSESSDSGSSSESDGD-OH [ASARM-peptide] | able to inhibit; also recorded: dramatic dose-dependent inhibition | – | – | – | – | – | – | – | – | – | – | – | – | – | – | –
2 | – | B1 | – | 41.0 | 14.43 | 56.1 | 10.6 | 31.5 | 45.63 | 45.05 | 65.0 | 46.31 | not significantly different | 8.23 | 297.4 | no significant differences | not significantly different | not significantly different
